Measured values reported in the RNAGym collection of RNA variant scans (doi:10.1073/pnas.2313332121).

B1: TPR t1 (parent)
chain: GACCAAUCUGCCCUCAGAGCUCGAGAACAUCUUCGGAUGCAGAGGAGGCAGGCUUCGGUGGCGCGAUAGCGCCAACGUCCUCAACCUCCAAUGCAUCCCACCACAUGAUGAUGCCUGAAGAGCCUUGGUUUUUUG

Variants of: B1
Test: polymerase ribozyme fitness, log enrichment relative to wild type (log ratio); higher = more active; in vitro selection for triplet polymerase activity
How it was run: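 Genotype fitness is the logarithm of its enrichment divided by wild-type enrichment, using inverse-variance-weighted averages of replicates. That logarithm is base 2. Enrichment was measured by Illumina sequencing of input and output libraries from one triplicate in vitro selection round, with frozen incubation at −7 °C, on PCR-built, transcribed mutant libraries of each subunit of a heterodimeric triplet polymerase ribozyme, retaining genotypes with ≥10 input reads and ≥1 read per output.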

Variant | polymerase ribozyme fitness (log ratio)
C4U U9G G35A G47U G48U G63A C104U G113U | -6.85
A5G C8G G52C C79U | 0.0143
A5C C97G U112A G122U | -5.96
C4U C49U A66G | -2.3
A5G A43G G63A U112G | -5.31
A5C C12U C73A C99U | -4.28
C4U G45U C124A | 0.121
A5G C13U G44U U96G U133A | -2.01
A5C G60U G128A | -2.44
C4U G10A C11G G69U | -0.117
C4U A43C G45A A74U C124A | -2.29
A5C G60A C89G G93A A111G | -4.73
A5C C13A C94A U112G | -2.97
A5C A91U | -2.68
A5C C8G C12U C72U C94A | -1.48
C4U A43C G45A G69U C124A | 0.59
A5C C12A C72U G113C | -3.72
C4U G36A C70A G71A A90G U112G | -6.28
C4U A43U G63C G93A | -3.29
C4U A5C G57C A68U C73U C115U C124U | -6.74
A5G A46U C56U C73G | -2.61
A5C G69U A90U | -0.485
A5C A46C C56A C102U | -3.74
C4U C49U U55G U96A | -2.11

Variant | polymerase ribozyme fitness (log ratio)
C4U A37G | -0.871
C4U C15U C72G C99U G120A | -4.79
C4U U9G C11A C72U A74U U106A | -0.724
A5G A50C | -0.262
C4U G47U U112C | -0.0324
A5C G44C A46U U106C | -2.77
C4U G113A | -1.15
C4U G48U C56G U78A C98U U112G G135A | -4.14
C4U U9G A103U C124G | -3.47
C4U C22G A43U G48U C49U C97U | -4.83
A5C C22A C88G | -5.51
A5C C56U C73A C115G G117A | -7.51
C4U C12G C49G A95U A111G | -1.16
A5C G10A U92G | -3.52
A5C U112A | 1.05
A5C U112C | 0.655
A5C C40G | -1.78
A5C C40U | -1.31
A5C C49U C53A C73U | -0.789
C4U A6U A91U G113U | -3.89
A5C A50U G69A U81A A121C | -1.62
C4U C13U G42U U55C G71A | -2.58
C4U U38A G45U C49G G71A | -4.53
A5C U9C C13U | -0.074

Variant | polymerase ribozyme fitness (log ratio)
A5C A75G U130G U133A | -0.35
C4U G48U G52U C73U A90U C124G | -2.07
A5C C73A C123G | 1.28
A5C C82U A84G U112A | -1.06
A5C C15A C64U U81C C88U | -3.57
C4U G17A | -2.72
A5C C20A A37G A84U A90C U109G | -4.05
A5C A24G G48U G110A C124U U131C | -4.58
C4U C56A C86U | -1.22
A5G A6U G61C A66U | -1.7
A5G C72G | -0.844
A5G C72U | -0.625
A5C G113A | -1.96
A5C G113U | -3.73
C4U A50G C62U G110A | -1.24
A5C G10A C34A G63U | -4.64
A5C C115A | -0.966
C4U U7G A27U A119G | -1.81
C4U U7G C22G U55G A91C C124A | -3.16
C4U G71A | -0.833
A5C A24G G48U G69U G110A C124U U131C | -2.03
C4U C114G | -2.65
A5G C49G U116G G117C | -3.05
A5C C73G C86G C99U G110A U112G | -7.21

Variant | polymerase ribozyme fitness (log ratio)
A5C C22A G69U C80U C114A | -1.41
A5G C12U G39U | -0.29
C4U C12U A16G C40A G57U | -2.2
C4U U87C | -0.694
C4U C8G C28A G35U G48C C49G C64U C88U A103G A111U | -6.13
C4G U92C | -3.05
C4U U9C C82U | 0.225
A5C C13U C70U A84C U131A | -1.24
C4U G58A C124U | 0.263
A5C U7C G57U C99U U112A | -3.19
C4U C8G G36U U38A G44U C73A C124A | -4.82
A5G C28G U78A U96C G110U | -0.656
C4U U32A C89A U106C G110A | -5.64
C4U G113U C124U | -4.72
C4U C12A C53A C56U C89G A121G | -1.89
A5G C13G G39A G51A U112C | -2.65
A5G C13U G42U C76A | -2.01
C4U U7A G93C C102A | -3.52
A5G C49U C70U C72U A121U U133G | 0.312
C4U C49A G60C C80A C115A | -5.4
C4U G48A G52A U92A | -5.54
C4U U32A G47A U112G | -5.29
C4U C53U C64U A84G | -1.67
C4U G60A C86U G93A G117A U133A | -3.03

Variant | polymerase ribozyme fitness (log ratio)
A5C G60U | -1.18
C4U C13A C53U | -2.94
C4U A27G C62A | -4.35
C4U C12A G44A U116A | -6.42
C4U A6U U78G C88U A91U A95U | -3.57
A5C G45U G93A A121U | -0.00844
C4U A41U U112A G113C G122C | -2.19
A5G C56U | -0.367
C4U U14C G60A A75U | -3.07
A5G C12G C34U C72A A95C | -5.52
C4U G17U G60U C89A | -4.98
A5G A83G G110A | -2.14
C4U G44U C72A | -0.827
A5G C13G G51A U112C | -1.39
A5C C12A U96C G128C | -2.92
A5G A91U | -1.78
A5C C8A C12U U54A C56U G63U C98G | -7.29
A5C C11G A41C G71C C104U | -2.45
C4U G69C C97U G122A | -2.49
A5C C13A C70U U87A | -3.43
C4U G48C G69C C101G | -4.61
C4U C53A C64U C88A C123U G127U U131G | -1.35
A5C C53G C64U C94U | -1.07
C4U C8G C53U | 0.711

Variant | polymerase ribozyme fitness (log ratio)
C4U G10U C70G | -4.35
C4U A41C A111U A119C | -6.22
C4G U55C C72U C94G | -3.35
C4U G63C C76A A91C A100C C115G C123A | -4.89
A5G A121C | 0.258
A5C U125G | -0.516
C4U U38G C49A C53U C73U | -2.53
A5C U55C G120U C123G U131A | 0.062
C4U A6C G48U G69U C86U C88A G113C | -3.07
C4U U21A C115G | -4.19
C4U A6C C13U G48U C49G C53U G113C | -3.03
C4U C64A C124U | -5.08
A5C G17A G36U | -5.9
A5C G17A A41G C53A C56A C70U G71A U112C | -6.41
C4U G60U U92A U96C | -3.48
C4G U59C G65A C85U G110C | -5.92
A5C U9C G61C | -1.78
C4U C11G C101U | -0.238
A5G C8G G113U | -1.74
C4U C73G A118G | -1.58
C4U A74U | -1.1
A5C G77A | -0.654
A5G C49A C115U U132A | -0.466
C4U A29C G48U C56G A119G | -3.08

Variant | polymerase ribozyme fitness (log ratio)
C4U A26G C28U C40A C64A C123U | -6.51
C4U G60A | -0.911
A5G A26C C72U U87A G120U U130A | -3.99
A5C G120C | 0.663
A5C G120A | 0.639
C4U G120A | 0.077
A5G C53A U59A G77U C94U | -0.908
A5G C13G A18C G35U A75G C79U A119G C123G U130C | -7.55
C4U A75G C76A G77U | -2.12
C4U A18G G58A G69U | -2.44
C4U G52U G128C U131A | -3.4
C4U G71A G77A | -2.96
A5C U87C C88A G120U | -0.6
C4U G10C G69U U125A | -2.15
C4U G52U C73A | -0.845
C4U U96A | -1.6
C4U C11A G44C C82G A121C G127A | -0.143
A5G A84U U112G | -0.141
A5G C8U G61U C94U | 0.251
A5C C53U | -1.88
A5C G71U A75U C98U | -1.25
C4U G10U G52U C88G C123U | -0.494
A5G C28A U33G U55A C73U A100C C124A | -5.92
